Source: US9944717

Biological target: T1, glycosylated recombinant human complement C2 with a N-terminal his-tag
T1 chain: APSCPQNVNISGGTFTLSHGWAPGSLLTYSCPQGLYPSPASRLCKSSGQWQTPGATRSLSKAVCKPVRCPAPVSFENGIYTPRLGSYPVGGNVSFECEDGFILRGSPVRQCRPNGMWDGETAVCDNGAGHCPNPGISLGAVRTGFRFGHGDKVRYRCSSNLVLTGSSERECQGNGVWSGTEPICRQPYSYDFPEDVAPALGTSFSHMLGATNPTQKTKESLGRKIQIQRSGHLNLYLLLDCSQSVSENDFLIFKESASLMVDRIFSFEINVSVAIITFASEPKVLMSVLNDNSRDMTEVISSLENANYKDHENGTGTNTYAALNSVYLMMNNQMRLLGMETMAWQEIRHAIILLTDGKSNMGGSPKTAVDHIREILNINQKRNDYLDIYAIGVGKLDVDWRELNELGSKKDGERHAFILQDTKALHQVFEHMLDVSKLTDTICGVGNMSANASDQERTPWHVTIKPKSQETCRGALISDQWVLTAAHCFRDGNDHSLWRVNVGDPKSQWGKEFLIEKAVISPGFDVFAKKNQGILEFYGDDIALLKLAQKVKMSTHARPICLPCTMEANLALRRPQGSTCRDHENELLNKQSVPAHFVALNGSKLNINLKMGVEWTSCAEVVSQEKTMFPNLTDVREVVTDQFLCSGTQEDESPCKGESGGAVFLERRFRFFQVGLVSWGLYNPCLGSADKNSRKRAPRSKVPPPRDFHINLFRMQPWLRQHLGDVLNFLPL

B1: plasma-derived activated human C1s (Calbiochem) (protein)
chain: EPTMYGEILSPNYPQAYPSEVEKSWDIEVPEGYGIHLYFTHLDIELSENCAYDSVQIISGDTEEGRLCGQRSSNNPHSPIVEEFQVPYNKLQVIFKSDFSNEERFTGFAAYYVATDINECTDFVDVPCSHFCNNFIGGYFCSCPPEYFLHDDMKNCGVNCSGDVFTALIGEIASPNYPKPYPENSRCEYQIRLEKGFQVVVTLRREDFDVEAADSAGNCLDSLVFVAGDRQFGPYCGHGFPGPLNIETKSNALDIIFQTDLTGQKKGWKLRYHGDPMPCPKEDTPNSVWEPAKAKYVFRDVVQITCLDGFEVVEGRVGATSFYSTCQSNGKWSNSKLKCQPVDCGIPESIENGKVEDPESTLFGSVIRYTCEEPYYYMENGGGGEYHCAGNGSWVNEVLGPELPKCVPVCGVPREPFEEKQRIIGGSDADIKNFPWQVFFDNPWAGGALINEYWVLTAAHVVEGNREPTMYVGSTSVQTSRLAKSKMLTPEHVFIHPGWKLLEVPEGRTNFDNDIALVRLKDPVKMGPTVSPICLPGTSSDYNLMDGDLGLISGWGRTEKRDRAVRLKAARLPVAPLRKCKEVKVEKPTADAEAYVFTPNMICAGGEKGMDSCKGDSGGAFAVQDPNDKTKFYAAGLVSWGPQCGTYGLYTRVKNYVDWIMKTMQENSTPRED
In the case of B1, the “cleavage of recombinant C2 by C1s (SDS-PAGE, C1s-to-C2 ratio of 1:25)” value is reported as “C1s cleaved recombinant C2 into subcomponents C2a (≈70 kDa) and C2b (≈30 kDa)”.
